Assay results from article doi:10.1101/2020.11.14.20231811.

Molecular target: SARS-CoV-2 spike S1 subunit (SARS-CoV-2, UniProt P0DTC2 13-685)
Test: phosphate buffer

B1: CoV2-RBD-1C, MB/thiol-modified (structured_DNA)
DNA: CAGCACCGACCTTGTGCTTTGGGAGTGCTGGTCCAAGGGCGTTAATGGACA
modifications: 5' methylene blue; 3' thiol C3 (ThioMC3-D)
binding result: binds
